Assay results published in IntAct's records for PubMed 31515488.

B1: Embryonal Fyn-associated substrate (Homo sapiens), O43281 (parent)
chain: MAIATSTQLARALYDNTAESPQELSFRRGDVLRVLQREGAGGLDGWCLCSLHGQQGIVPANRVKLLPAGPAPKPSLSPASPAQPGSPYPAPDHSNEDQEVYVVPPPARPCPTSGPPAGPCPPSPDLIYKIPRASGTQLAAPRDALEVYDVPPTALRVPSSGPYDCPASFSHPLTRVAPQPPGEDDAPYDVPLTPKPPAELEPDLEWEGGREPGPPIYAAPSNLKRASALLNLYEAPEELLADGEGGGTDEGIYDVPLLGPEAPPSPEPPGALASHDQDTLAQLLARSPPPPHRPRLPSAESLSRRPLPALPVPEAPSPSPVPSPAPGRKGSIQDRPLPPPPPRLPGYGGPKVEGDPEGREMEDDPAGHHNEYEGIPMAEEYDYVHLKGMDKAQGSRPPDQACTGDPELPERGMPAPQEALSPGEPLVVSTGDLQLLYFYAGQCQSHYSALQAAVAALMSSTQANQPPRLFVPHSKRVVVAAHRLVFVGDTLGRLAASAPLRAQVRAAGTALGQALRATVLAVKGAALGYPSSPAIQEMVQCVTELAGQALQFTTLLTSLAP
B2: Arginine/serine-rich protein 1 (Homo sapiens), Q9BUV0 (parent)
chain: MSNYVNDMWPGSPQEKDSPSTSRSGGSSRLSSRSRSRSFSRSSRSHSRVSSRFSSRSRRSKSRSRSRRRHQRKYRRYSRSYSRSRSRSRSRRYRERRYGFTRRYYRSPSRYRSRSRSRSRSRGRSYCGRAYAIARGQRYYGFGRTVYPEEHSRWRDRSRTRSRSRTPFRLSEKDRMELLEIAKTNAAKALGTTNIDLPASLRTVPSAKETSRGIGVSSNGAKPELSEKVTEDGTRNPNEKPTQQRSIAFSSNNSVAKPIQKSAKAATEEASSRSPKIDQKKSPYGLWIPI
B3: Placental protein 13-like (Homo sapiens), Q8TCE9 (parent)
chain: MSSLPVPYTLPVSLPVGSCVIITGTPILTFVKDPQLEVNFYTGMDEDSDIAFQFRLHFGHPAIMNSCVFGIWRYEEKCYYLPFEDGKPFELCIYVRHKEYKVMVNGQRIYNFAHRFPPASVKMLQVFRDISLTRVLISD
partner: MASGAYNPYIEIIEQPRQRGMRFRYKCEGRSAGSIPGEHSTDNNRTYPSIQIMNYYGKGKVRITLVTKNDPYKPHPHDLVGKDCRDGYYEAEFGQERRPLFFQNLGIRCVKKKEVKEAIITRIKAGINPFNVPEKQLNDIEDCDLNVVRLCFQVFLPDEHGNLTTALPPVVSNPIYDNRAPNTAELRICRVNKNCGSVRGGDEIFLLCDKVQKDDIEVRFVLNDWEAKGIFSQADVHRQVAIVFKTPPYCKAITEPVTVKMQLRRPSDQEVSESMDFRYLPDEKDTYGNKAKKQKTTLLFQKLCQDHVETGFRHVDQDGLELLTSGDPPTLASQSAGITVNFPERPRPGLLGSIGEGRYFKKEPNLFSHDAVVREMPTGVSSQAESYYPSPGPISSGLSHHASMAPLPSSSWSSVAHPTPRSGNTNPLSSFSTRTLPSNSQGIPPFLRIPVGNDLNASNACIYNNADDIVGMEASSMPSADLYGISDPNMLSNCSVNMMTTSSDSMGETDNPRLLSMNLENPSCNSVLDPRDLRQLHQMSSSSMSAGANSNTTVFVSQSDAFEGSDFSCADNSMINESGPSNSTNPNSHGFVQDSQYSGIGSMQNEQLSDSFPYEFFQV
B4: Flavin-containing monooxygenase 3 (Homo sapiens), P31513 (parent)
chain: MGKKVAIIGAGVSGLASIRSCLEEGLEPTCFEKSNDIGGLWKFSDHAEEGRASIYKSVFSNSSKEMMCFPDFPFPDDFPNFMHNSKIQEYIIAFAKEKNLLKYIQFKTFVSSVNKHPDFATTGQWDVTTERDGKKESAVFDAVMVCSGHHVYPNLPKESFPGLNHFKGKCFHSRDYKEPGVFNGKRVLVVGLGNSGCDIATELSRTAEQVMISSRSGSWVMSRVWDNGYPWDMLLVTRFGTFLKNNLPTAISDWLYVKQMNARFKHENYGLMPLNGVLRKEPVFNDELPASILCGIVSVKPNVKEFTETSAIFEDGTIFEGIDCVIFATGYSFAYPFLDESIIKSRNNEIILFKGVFPPLLEKSTIAVIGFVQSLGAAIPTVDLQSRWAAQVIKGTCTLPSMEDMMNDINEKMEKKRKWFGKSETIQTDYIVYMDELSSFIGAKPNIPWLFLTDPKLAMEVYFGPCSPYQFRLVGPGQWPGARNAILTQWDRSLKPMQTRVVGRLQKPCFFFHWLKLFAIPILLIAVFLVLT
partner: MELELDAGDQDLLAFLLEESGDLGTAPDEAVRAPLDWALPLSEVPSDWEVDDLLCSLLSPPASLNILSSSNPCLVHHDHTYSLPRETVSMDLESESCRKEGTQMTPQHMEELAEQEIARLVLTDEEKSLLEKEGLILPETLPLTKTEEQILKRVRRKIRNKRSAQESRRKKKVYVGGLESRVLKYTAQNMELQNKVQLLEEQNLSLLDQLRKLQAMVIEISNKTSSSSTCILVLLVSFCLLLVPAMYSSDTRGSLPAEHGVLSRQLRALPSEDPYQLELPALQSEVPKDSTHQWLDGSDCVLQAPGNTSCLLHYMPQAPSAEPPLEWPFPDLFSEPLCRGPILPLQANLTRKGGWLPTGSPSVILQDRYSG

Variants of: B1
Details: with blk_human BLK

Row | Variant | effect of a mutation on the interaction
1 | MAIATSTQLARALYDNTAESPQELSFRRGDVLRVLQREGAGGLDGWCLCSLHGQQGIVPANRVKLLPAGPAPKPSLSPASPAQPGSPYPAPDHSNEDQEVYVVPPPARPCPTSGPPAGPCPPSPDLIYKIPRASGTQLAAPRDALEVYDVPPTALRVPSSGPYDCPASFSHPLTRVAPQPPGEDDAPYDVPLTPKPPAELEPDLEWEGGREPGPPIYAAPSNLKRASALLNLYEAPEELLADGEGGGTDEGIYDVPLLGPEAPPFPEPPGALASHDQDTLAQLLARSPPPPHRPRLPSAESLSRRPLPALPVPEAPSPSPVPSPAPGRKGSIQDRPLPPPPPRLPGYGGPKVEGDPEGREMEDDPAGHHNEYEGIPMAEEYDYVHLKGMDKAQGSRPPDQACTGDPELPERGMPAPQEALSPGEPLVVSTGDLQLLYFYAGQCQSHYSALQAAVAALMSSTQANQPPRLFVPHSKRVVVAAHRLVFVGDTLGRLAASAPLRAQVRAAGTALGQALRATVLAVKGAALGYPSSPAIQEMVQCVTELAGQALQFTTLLTSLAP [S265F] | with no effect

Variants of: B1
Details: with nck2_human NCK2, O43639
Chain of nck2_human NCK2, O43639 (O43639 whole entry): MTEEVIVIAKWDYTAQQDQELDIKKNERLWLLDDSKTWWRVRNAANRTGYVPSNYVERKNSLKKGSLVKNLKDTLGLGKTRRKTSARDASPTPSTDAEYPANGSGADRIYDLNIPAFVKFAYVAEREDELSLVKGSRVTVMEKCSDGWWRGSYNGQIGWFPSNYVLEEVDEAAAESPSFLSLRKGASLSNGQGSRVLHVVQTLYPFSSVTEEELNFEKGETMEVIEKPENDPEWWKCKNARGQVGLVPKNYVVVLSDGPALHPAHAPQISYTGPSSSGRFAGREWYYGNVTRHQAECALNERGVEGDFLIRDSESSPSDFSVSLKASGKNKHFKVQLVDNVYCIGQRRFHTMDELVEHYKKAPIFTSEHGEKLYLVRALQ

Row | Variant | effect of a mutation on the interaction
2 | MAIATSTQLARALYDNTAESPQELSFRRGDVLRVLQREGAGGLDGWCLCSLHGQQGIVPANRVKLLPAGPAPKPSLSPASPAQPGSPYPAPDHSNEDQEVYVVPPPARPCPTSGPPAGPCPPSPDLIYKIPRASGTQLAAPRDALEVYDVPPTALRVPSSGPYDCPASFSHPLTRVAPQPPGEDDAPYDVPLTPKPPAELEPDLEWEGGREPGPPIYAAPSNLKRASALLNLYEAPEELLADGEGGGTDEGIYDVPLLGPEAPPFPEPPGALASHDQDTLAQLLARSPPPPHRPRLPSAESLSRRPLPALPVPEAPSPSPVPSPAPGRKGSIQDRPLPPPPPRLPGYGGPKVEGDPEGREMEDDPAGHHNEYEGIPMAEEYDYVHLKGMDKAQGSRPPDQACTGDPELPERGMPAPQEALSPGEPLVVSTGDLQLLYFYAGQCQSHYSALQAAVAALMSSTQANQPPRLFVPHSKRVVVAAHRLVFVGDTLGRLAASAPLRAQVRAAGTALGQALRATVLAVKGAALGYPSSPAIQEMVQCVTELAGQALQFTTLLTSLAP [S265F] | with no effect

Variants of: B1
Details: with abi2_human ABI2, Q9NYB9
Chain of abi2_human ABI2, Q9NYB9 (Q9NYB9 whole entry): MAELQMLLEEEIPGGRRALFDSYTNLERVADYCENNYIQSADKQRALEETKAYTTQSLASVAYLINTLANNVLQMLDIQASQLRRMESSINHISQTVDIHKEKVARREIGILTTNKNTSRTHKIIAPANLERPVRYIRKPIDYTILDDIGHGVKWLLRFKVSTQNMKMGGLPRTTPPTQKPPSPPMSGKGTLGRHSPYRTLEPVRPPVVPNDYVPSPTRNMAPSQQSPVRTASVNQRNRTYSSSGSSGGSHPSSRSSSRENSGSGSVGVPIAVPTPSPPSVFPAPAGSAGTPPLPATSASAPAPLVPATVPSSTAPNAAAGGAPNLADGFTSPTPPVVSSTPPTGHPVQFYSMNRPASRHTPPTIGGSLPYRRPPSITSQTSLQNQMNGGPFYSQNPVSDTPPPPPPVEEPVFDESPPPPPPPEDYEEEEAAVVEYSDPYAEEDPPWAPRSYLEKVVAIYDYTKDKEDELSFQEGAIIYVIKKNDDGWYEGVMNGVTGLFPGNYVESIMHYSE

Row | Variant | effect of a mutation on the interaction
3 | MAIATSTQLARALYDNTAESPQELSFRRGDVLRVLQREGAGGLDGWCLCSLHGQQGIVPANRVKLLPAGPAPKPSLSPASPAQPGSPYPAPDHSNEDQEVYVVPPPARPCPTSGPPAGPCPPSPDLIYKIPRASGTQLAAPRDALEVYDVPPTALRVPSSGPYDCPASFSHPLTRVAPQPPGEDDAPYDVPLTPKPPAELEPDLEWEGGREPGPPIYAAPSNLKRASALLNLYEAPEELLADGEGGGTDEGIYDVPLLGPEAPPFPEPPGALASHDQDTLAQLLARSPPPPHRPRLPSAESLSRRPLPALPVPEAPSPSPVPSPAPGRKGSIQDRPLPPPPPRLPGYGGPKVEGDPEGREMEDDPAGHHNEYEGIPMAEEYDYVHLKGMDKAQGSRPPDQACTGDPELPERGMPAPQEALSPGEPLVVSTGDLQLLYFYAGQCQSHYSALQAAVAALMSSTQANQPPRLFVPHSKRVVVAAHRLVFVGDTLGRLAASAPLRAQVRAAGTALGQALRATVLAVKGAALGYPSSPAIQEMVQCVTELAGQALQFTTLLTSLAP [S265F] | with no effect

Variants of: B1
Details: with fyn_human FYN

Row | Variant | effect of a mutation on the interaction
4 | MAIATSTQLARALYDNTAESPQELSFRRGDVLRVLQREGAGGLDGWCLCSLHGQQGIVPANRVKLLPAGPAPKPSLSPASPAQPGSPYPAPDHSNEDQEVYVVPPPARPCPTSGPPAGPCPPSPDLIYKIPRASGTQLAAPRDALEVYDVPPTALRVPSSGPYDCPASFSHPLTRVAPQPPGEDDAPYDVPLTPKPPAELEPDLEWEGGREPGPPIYAAPSNLKRASALLNLYEAPEELLADGEGGGTDEGIYDVPLLGPEAPPFPEPPGALASHDQDTLAQLLARSPPPPHRPRLPSAESLSRRPLPALPVPEAPSPSPVPSPAPGRKGSIQDRPLPPPPPRLPGYGGPKVEGDPEGREMEDDPAGHHNEYEGIPMAEEYDYVHLKGMDKAQGSRPPDQACTGDPELPERGMPAPQEALSPGEPLVVSTGDLQLLYFYAGQCQSHYSALQAAVAALMSSTQANQPPRLFVPHSKRVVVAAHRLVFVGDTLGRLAASAPLRAQVRAAGTALGQALRATVLAVKGAALGYPSSPAIQEMVQCVTELAGQALQFTTLLTSLAP [S265F] | with no effect

Variants of: B2
Details: with clk2_human CLK2, P49760
Chain of clk2_human CLK2, P49760 (P49760 whole entry, looked up): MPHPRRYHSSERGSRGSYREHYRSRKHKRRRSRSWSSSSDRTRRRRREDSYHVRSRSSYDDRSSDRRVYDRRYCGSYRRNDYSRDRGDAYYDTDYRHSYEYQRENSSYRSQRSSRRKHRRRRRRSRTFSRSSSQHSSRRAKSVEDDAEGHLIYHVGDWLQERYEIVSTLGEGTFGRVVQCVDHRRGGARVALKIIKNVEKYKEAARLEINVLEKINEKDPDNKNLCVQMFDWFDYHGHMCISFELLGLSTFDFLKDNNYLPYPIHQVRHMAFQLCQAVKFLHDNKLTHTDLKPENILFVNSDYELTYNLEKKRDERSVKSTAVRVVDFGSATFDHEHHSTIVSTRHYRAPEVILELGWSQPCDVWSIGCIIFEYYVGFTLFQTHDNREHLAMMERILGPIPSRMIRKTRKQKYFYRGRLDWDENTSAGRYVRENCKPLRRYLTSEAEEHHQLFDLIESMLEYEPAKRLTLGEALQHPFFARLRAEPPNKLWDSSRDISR

Row | Variant | effect of a mutation on the interaction
5 | MSNYVNDMWPGSPQEKDSPLTSRSGGSSRLSSRSRSRSFSRSSRSHSRVSSRFSSRSRRSKSRSRSRRRHQRKYRRYSRSYSRSRSRSRSRRYRERRYGFTRRYYRSPSRYRSRSRSRSRSRGRSYCGRAYAIARGQRYYGFGRTVYPEEHSRWRDRSRTRSRSRTPFRLSEKDRMELLEIAKTNAAKALGTTNIDLPASLRTVPSAKETSRGIGVSSNGAKPELSEKVTEDGTRNPNEKPTQQRSIAFSSNNSVAKPIQKSAKAATEEASSRSPKIDQKKSPYGLWIPI [S20L] | with no effect
6 | MSNYVNDMWPGSPQEKDSPSTSRSGGSSRLSSRSRSRSFSRSSRSHSRVSSRFSSRSRRSKSRSRSRRRHQRKYRRYSRSYSRSRSRSRSRRYRERRYGFTRRYYRSPSRYRSRSRSRSRSRGRSYCGRAYAIARGQRYYGFGRTVHPEEHSRWRDRSRTRSRSRTPFRLSEKDRMELLEIAKTNAAKALGTTNIDLPASLRTVPSAKETSRGIGVSSNGAKPELSEKVTEDGTRNPNEKPTQQRSIAFSSNNSVAKPIQKSAKAATEEASSRSPKIDQKKSPYGLWIPI [Y147H] | with no effect

Variants of: B2
Details: with clk3_human CLK3, P49761
Chain of clk3_human CLK3, P49761 (P49761 whole entry, looked up): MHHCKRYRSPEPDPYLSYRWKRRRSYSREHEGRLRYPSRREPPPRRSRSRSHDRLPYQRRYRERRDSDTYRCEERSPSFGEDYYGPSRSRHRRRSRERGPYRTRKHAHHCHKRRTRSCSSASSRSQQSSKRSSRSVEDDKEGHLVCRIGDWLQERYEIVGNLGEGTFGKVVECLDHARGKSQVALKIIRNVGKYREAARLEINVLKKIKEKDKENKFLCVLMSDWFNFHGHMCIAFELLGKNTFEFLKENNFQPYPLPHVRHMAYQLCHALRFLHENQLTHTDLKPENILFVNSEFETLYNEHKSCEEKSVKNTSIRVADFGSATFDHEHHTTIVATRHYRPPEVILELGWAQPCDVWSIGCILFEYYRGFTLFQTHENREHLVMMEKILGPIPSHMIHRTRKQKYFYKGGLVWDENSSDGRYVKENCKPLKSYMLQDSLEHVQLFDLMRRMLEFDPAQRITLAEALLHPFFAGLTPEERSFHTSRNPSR

Row | Variant | effect of a mutation on the interaction
7 | MSNYVNDMWPGSPQEKDSPLTSRSGGSSRLSSRSRSRSFSRSSRSHSRVSSRFSSRSRRSKSRSRSRRRHQRKYRRYSRSYSRSRSRSRSRRYRERRYGFTRRYYRSPSRYRSRSRSRSRSRGRSYCGRAYAIARGQRYYGFGRTVYPEEHSRWRDRSRTRSRSRTPFRLSEKDRMELLEIAKTNAAKALGTTNIDLPASLRTVPSAKETSRGIGVSSNGAKPELSEKVTEDGTRNPNEKPTQQRSIAFSSNNSVAKPIQKSAKAATEEASSRSPKIDQKKSPYGLWIPI [S20L] | with no effect
8 | MSNYVNDMWPGSPQEKDSPSTSRSGGSSRLSSRSRSRSFSRSSRSHSRVSSRFSSRSRRSKSRSRSRRRHQRKYRRYSRSYSRSRSRSRSRRYRERRYGFTRRYYRSPSRYRSRSRSRSRSRGRSYCGRAYAIARGQRYYGFGRTVHPEEHSRWRDRSRTRSRSRTPFRLSEKDRMELLEIAKTNAAKALGTTNIDLPASLRTVPSAKETSRGIGVSSNGAKPELSEKVTEDGTRNPNEKPTQQRSIAFSSNNSVAKPIQKSAKAATEEASSRSPKIDQKKSPYGLWIPI [Y147H] | with no effect

Variants of: B3
Details: with rel_human REL

Row | Variant | effect of a mutation on the interaction
9 | MSSLPVPYTLPVSLPVGSCVIITGTPILTFVKDPQLEVNFYTGMDEDSDIAFQFRLHFGHPAIMNSCVFGIWRYEEKCYYLPFEDGKPFELCIYVRHKEYKVMVNGQRIYNFAHRFPPASVKTLQVFRDISLTRVLISD [M123T] | with no effect

Variants of: B4
Details: with creb3_human CREB3, O43889

Row | Variant | effect of a mutation on the interaction
10 | MGKKVAIIGAGVSGLASIRSCLEEGLEPTCFEKSNDIGGLWKFSDHAEEGRASIYKSVFSNSSKEMMCFPDFPFPDDFPNFMHNSKIQEYIIAFAKEKNLLKYIQFKTFVSSVNKHPDFATTGQWDVTTERDGKKESAVFDAVMVCSGHHVYPNLPKESFPGLNHFKGKCFHSRDYKEPVVFNGKRVLVVGLGNSGCDIATELSRTAEQVMISSRSGSWVMSRVWDNGYPWDMLLVTRFGTFLKNNLPTAISDWLYVKQMNARFKHENYGLMPLNGVLRKEPVFNDELPASILCGIVSVKPNVKEFTETSAIFEDGTIFEGIDCVIFATGYSFAYPFLDESIIKSRNNEIILFKGVFPPLLEKSTIAVIGFVQSLGAAIPTVDLQSRWAAQVIKGTCTLPSMEDMMNDINEKMEKKRKWFGKSETIQTDYIVYMDELSSFIGAKPNIPWLFLTDPKLAMEVYFGPCSPYQFRLVGPGQWPGARNAILTQWDRSLKPMQTRVVGRLQKPCFFFHWLKLFAIPILLIAVFLVLT [G180V] | with no effect
11 | E158K | with no effect
